From paper PMC12766925, “Functional assembly of the Qc-SNARE with Sec18 and Sec17 on membranes” (Molecular Biology of the Cell, 2025)

How the values were obtained:
His6-Sec18 = target: T1, His6-Sec18 (yeast (Saccharomyces Genome Database …, UniProt P18759 1-758)); test: liposome floatation (density gradient) with immunoblot; protein-free VML liposomes, 1 mM Mg:ATPyS, where indicated 1 µM Sec17, 250 nM Sec18, 2 µM Qc; Rb150, 27°C 1 h; floated through Histodenz; bound proteins by Western blot; details: both partners purified
T1 construct: Sec18, yeast, YBR080C; construct from Haas and Wickner, 1996; also called Sec18/NSF; source: E. coli XL1 Blue/pQE9-His6-Sec18, purified (Ni-NTA, Superdex 200)
T1 sequence (looked up): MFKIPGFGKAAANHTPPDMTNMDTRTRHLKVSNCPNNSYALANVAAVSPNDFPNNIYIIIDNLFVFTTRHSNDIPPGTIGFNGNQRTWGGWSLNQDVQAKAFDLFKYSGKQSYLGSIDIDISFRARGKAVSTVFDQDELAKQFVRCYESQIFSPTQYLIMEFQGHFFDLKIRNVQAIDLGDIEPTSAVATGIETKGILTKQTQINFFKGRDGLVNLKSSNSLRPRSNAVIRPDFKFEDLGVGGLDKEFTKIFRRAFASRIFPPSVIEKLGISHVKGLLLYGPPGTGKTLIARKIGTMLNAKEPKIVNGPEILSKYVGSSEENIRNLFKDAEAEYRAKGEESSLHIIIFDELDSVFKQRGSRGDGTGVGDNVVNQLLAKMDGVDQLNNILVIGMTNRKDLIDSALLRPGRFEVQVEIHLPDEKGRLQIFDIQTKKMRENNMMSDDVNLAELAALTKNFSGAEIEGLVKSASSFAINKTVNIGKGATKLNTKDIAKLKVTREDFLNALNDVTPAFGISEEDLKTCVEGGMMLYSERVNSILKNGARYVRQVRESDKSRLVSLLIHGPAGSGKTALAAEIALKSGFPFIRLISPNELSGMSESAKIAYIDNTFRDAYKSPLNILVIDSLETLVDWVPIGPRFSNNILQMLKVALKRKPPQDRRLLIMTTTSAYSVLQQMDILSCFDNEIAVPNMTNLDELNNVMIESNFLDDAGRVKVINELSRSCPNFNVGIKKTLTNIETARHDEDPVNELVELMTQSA

[1] = target: T2, complex of RQaQb on proteoliposomes (yeast (Saccharomyces Genome Database …, UniProt Q12255 1-253; Q12241 1-283; Q04338 1-217); test: liposome floatation (density gradient) with immunoblot; VML proteoliposomes with no SNAREs, single or several anchored SNAREs (1:2000 to lipid), 0.5 mM lipid, 1 µM added Sec17, Rb150, 0.04% defatted BSA, 1 mM MgCl2, 27°C 1 h; floated through Histodenz; bound Sec17 by Western blot; details: both partners purified
T2 construct: Nyv1 (R SNARE), yeast, YLR093C; as m5; Vam3 (Qa SNARE), yeast, YOR106W; as m6; Vti1 (Qb SNARE), yeast, YMR197C; as m7; also called R, Qa, and Qb; source: purified SNAREs (Mima et al., 2008) reconstituted together into VML proteoliposomes; copies: + +
T2 sequence (Q12255 whole entry, chain 1 of 3): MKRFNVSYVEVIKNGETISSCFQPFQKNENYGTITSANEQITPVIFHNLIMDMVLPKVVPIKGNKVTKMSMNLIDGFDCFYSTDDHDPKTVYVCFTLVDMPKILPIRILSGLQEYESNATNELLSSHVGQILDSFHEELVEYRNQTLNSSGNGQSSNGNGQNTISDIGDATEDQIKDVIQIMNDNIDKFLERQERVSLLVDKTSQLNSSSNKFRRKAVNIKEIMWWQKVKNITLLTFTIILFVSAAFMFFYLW
T2 sequence (Q12241 whole entry, chain 2 of 3): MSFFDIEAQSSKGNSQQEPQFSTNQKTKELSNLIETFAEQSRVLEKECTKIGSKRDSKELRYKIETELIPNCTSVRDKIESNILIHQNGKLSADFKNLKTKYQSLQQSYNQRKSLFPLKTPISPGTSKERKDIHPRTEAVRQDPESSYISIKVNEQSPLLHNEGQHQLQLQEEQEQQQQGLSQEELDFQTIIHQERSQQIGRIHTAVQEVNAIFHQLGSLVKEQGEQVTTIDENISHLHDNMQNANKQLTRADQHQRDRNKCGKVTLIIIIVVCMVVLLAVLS
T2 sequence (Q04338 whole entry, chain 3 of 3): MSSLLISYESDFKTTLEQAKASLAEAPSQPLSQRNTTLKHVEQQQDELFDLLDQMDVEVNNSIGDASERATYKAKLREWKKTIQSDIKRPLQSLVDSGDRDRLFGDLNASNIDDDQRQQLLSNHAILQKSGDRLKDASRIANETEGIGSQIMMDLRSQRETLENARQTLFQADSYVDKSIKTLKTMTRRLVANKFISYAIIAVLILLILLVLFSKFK

B1: Sec17 (natural protein, UniProt P32602 1-292, looked up)
chain: MSDPVELLKRAEKKGVPSSGFMKLFSGSDSYKFEEAADLCVQAATIYRLRKELNLAGDSFLKAADYQKKAGNEDEAGNTYVEAYKCFKSGGNSVNAVDSLENAIQIFTHRGQFRRGANFKFELGEILENDLHDYAKAIDCYELAGEWYAQDQSVALSNKCFIKCADLKALDGQYIEASDIYSKLIKSSMGNRLSQWSLKDYFLKKGLCQLAATDAVAAARTLQEGQSEDPNFADSRESNFLKSLIDAVNEGDSEQLSEHCKEFDNFMRLDKWKITILNKIKESIQQQEDDLL
notes: Sec17, yeast, YBL050W; Plasmid from Schwartz and Merz, 2009; also called Sec17/SNAP; wild-type Sec17; source: E. coli Rosetta2(DE3), purified (chitin resin, DTT cleavage, dialysed into Rb150)
B1: binds (His6-Sec18); binds [1].
